Where a chain is given by its changes, count along the chain named. Each block holds one binder with its values, some of them ahead of it.
What was measured:
TEM8 on TEM8过表达细胞 [1] = molecular target: T1, TEM8 on TEM8过表达细胞 (UniProt Q9H6X2 33-564, limits assumed); test: cell-based ELISA on HCT116/TEM8 cells
T1 construct: whole, on cells; One molecule is used for cell-surface TEM8 on both cell lines; the cell line is named under assay; also called TEM8稳定过表达细胞株 (CHO-K1); TEM8过表细胞

重组TEM8蛋白(义翘神州) [2] = molecular target: T2, 重组TEM8蛋白(义翘神州) (human, UniProt Q9H6X2 33-321, limits assumed); test: ELISA, antibody on plate-bound TEM8 protein, anti-human IgG-HRP, OD450
T2 construct: also called TEM8重组蛋白; recombinant TEM8 protein (Sino Biological)
T2 sequence (looked up): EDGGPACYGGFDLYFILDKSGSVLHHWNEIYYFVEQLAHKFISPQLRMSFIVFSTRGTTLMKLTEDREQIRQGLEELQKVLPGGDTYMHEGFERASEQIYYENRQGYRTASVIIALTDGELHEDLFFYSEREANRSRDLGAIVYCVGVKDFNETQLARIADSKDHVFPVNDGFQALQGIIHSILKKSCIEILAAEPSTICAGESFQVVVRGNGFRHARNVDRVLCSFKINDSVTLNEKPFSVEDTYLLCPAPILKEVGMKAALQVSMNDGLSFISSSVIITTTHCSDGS

TEM8 on TEM8过表达细胞 [3] = molecular target: T1, TEM8 on TEM8过表达细胞; test: cell-based assay on TEM8 overexpressing cells, anti-human-IgG-Eu fluorescence
重组TEM8蛋白(义翘神州) [4] = molecular target: T2, 重组TEM8蛋白(义翘神州); test: ELISA on plate-bound TEM8 protein, method as in Example 2

- EC50 (TEM8 on TEM8过表达细胞 [1]): 0.128 µg/mL
- EC50 (重组TEM8蛋白(义翘神州) [2]): 0.00317 µg/mL
- EC50 (TEM8 on TEM8过表达细胞 [3]): 0.105 µg/mL
- EC50 (重组TEM8蛋白(义翘神州) [4]): 0.00176 µg/mL
B1: HUT104 (antibody, human IgG1, kappa, V domains shown)
VH: EVQLQESGPGLVKPSETLSLTCTVTGDSISSDYWNWVRQAPGQRLEWMGYISYSGNTYTNPSLKSRITINRDTSKNQFSLQLNSVTPEDTAVYYCARYKTITSAFDVWGQGTTVTVSS
VL: EIVMTQSPATLSVSPGERATLSCRASQNIRDFLHWYQQKPGQAPRLLIYYASQSISGIPARFSGSGSGTDFTLTISSLEPEDFAVYYCQNGHSFPYTFGGGTKVEIKR
notes: also called TEM8抗体HUT104; 单克隆抗体HUT104

- EC50 (重组TEM8蛋白(义翘神州) [2]): 0.00357 µg/mL
- EC50 (TEM8 on TEM8过表达细胞 [3]): 0.113 µg/mL
B2: HUT105 (antibody, human IgG1, kappa, V domains shown)
VH: B1 VH with A104M
VL: B1 VL
notes: also called TEM8抗体; 单克隆抗体HUT105

- EC50 (重组TEM8蛋白(义翘神州) [2]): 0.00453 µg/mL
- EC50 (TEM8 on TEM8过表达细胞 [3]): 0.13 µg/mL
B3: HUT103 (antibody, human IgG1, kappa, V domains shown)
VH: B1 VH with A104V, F105L
VL: B1 VL
notes: also called TEM8抗体; 单克隆抗体HUT103

Reference: patent CN110156894A (JIANGSU NUOMAIBO BIOMEDICAL TECH CO LTD, dated 2019)
